Results taken from US20100247515A1 (DOMANTIS, published 2010).

T1: TNFR1 on MRC-5 fibroblasts (UniProt P19438 30-455, limits assumed)
T1 sequence (looked up): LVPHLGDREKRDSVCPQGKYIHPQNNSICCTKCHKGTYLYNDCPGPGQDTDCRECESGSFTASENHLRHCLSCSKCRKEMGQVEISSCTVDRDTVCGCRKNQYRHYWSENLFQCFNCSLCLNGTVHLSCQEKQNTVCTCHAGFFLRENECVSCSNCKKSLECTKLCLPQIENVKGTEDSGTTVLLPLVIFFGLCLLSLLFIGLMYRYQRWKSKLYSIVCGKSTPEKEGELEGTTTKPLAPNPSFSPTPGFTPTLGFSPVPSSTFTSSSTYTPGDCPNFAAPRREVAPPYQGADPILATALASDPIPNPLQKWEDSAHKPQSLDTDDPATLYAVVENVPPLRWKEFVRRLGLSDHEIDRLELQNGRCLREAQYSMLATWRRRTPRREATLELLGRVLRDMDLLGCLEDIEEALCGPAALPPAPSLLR


Molecular target: T1, TNFR1 on MRC-5 fibroblasts
Test: cell-based or functional assay

Binder	ND50, MRC-5 cell-based assay [nM]
DOM1h-131-203 (other) VH: EVQLWESGGGLVQPGGSLRLSCAASGFTFAHETMVWVRQAPGKGLEWVSHIPPDGQDPFYADSVKGRFTISRDNSKNTLYLQMNSLRAEDTAVYYCALLPKRGPWIDYWGQGTLVTVSS	2.28
DOM1h-131-204 (other) VH: EVQLSESGGGLVQPGGSLRLSCAASGFTFAHETMVWVRQAPGKGLEWVSHIPPDGQDPFYADSVKGRFTISRDNSKNTLYLQMNSLRAEDTAVYYCALLPNRGPWFDYWGQGTLVTVSS	1.89
